Here are results for 2 molecules from US20200399394A1 (SURFACE ONCOLOGY, published 2020).

In assay [1] the target is T1, human CD39 (ectonucleoside triphosphate diphosphohydrolase 1) (human, UniProt P49961 1-510).
T1 construct: Endogenous CD39 on MOLP-8 and SK-MEL-28 cells, primary human B cells and primary human monocytes; also called ENTPD1; ATPDase
T1 sequence: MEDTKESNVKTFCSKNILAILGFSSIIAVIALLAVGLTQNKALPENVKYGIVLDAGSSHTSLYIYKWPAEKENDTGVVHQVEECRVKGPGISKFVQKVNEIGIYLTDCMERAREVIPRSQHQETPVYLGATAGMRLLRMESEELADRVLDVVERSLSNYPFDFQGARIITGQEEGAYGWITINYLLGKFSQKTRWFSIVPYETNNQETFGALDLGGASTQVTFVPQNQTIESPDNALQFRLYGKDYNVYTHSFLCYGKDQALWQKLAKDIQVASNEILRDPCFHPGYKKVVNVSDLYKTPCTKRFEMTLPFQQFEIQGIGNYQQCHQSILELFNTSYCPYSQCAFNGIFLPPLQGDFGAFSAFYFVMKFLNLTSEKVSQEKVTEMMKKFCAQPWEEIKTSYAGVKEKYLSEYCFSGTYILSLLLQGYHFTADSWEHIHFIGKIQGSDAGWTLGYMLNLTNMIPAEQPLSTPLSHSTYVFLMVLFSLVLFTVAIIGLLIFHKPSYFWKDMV
The experiment in a line: flow cytometry (MFI), AF488-labelled antibody on SK-MEL-28 cells, FIG. 4A. As for the experimental part: (§1) The extent of binding to cells was determined and expressed as mean fluorescent intensity (MFI). Cells were washed with FACS Buffer (2 mM EDTA, 2% FBS) and pelleted by centrifugation. The cells were resuspended in FACS buffer containing a dose range of anti-CD39 or isotype control antibodies directly labelled with fluorophore Alexa Fluor 488 (AF488) and incubated for 30 minutes at room temperature. Cells were then washed twice with FACS buffer followed by fixation in 4% paraformaldehyde (PFA) and resuspended in FACS buffer and analyzed on a FACS Canto II analyzer (BD Biosciences).
Background: Flow cytometry measures light scatter and fluorescence of single cells or particles in a stream.

The target of assay [2] is T1, human CD39 (ectonucleoside triphosphate …). The experiment in a line: flow cytometry (MFI), AF488-labelled antibody, told under FIG. 4B (MOLP-8 cells; the sentence prints SK-MEL-28). As for the experimental part: as §1

B1: SRF365-A (antibody, human IgG4 S228P, kappa, V domains shown)
VH: QVQLVQSGAEVKKPGSSVKVSCKASGGTFSDKAISWVRQAPGQGLEWMGSILPIFGTANYAQKFQGRVTITADESTSTAYMELSSLRSEDTAVYYCAREAGYYRYRYFDLWGRGTLVTVSS
VL: EIVMTQSPATLSVSPGERATLSCRASQSVSSNLAWYQQKPGQAPRLLIYGASTRATGIPARFSGSGSGTEFTLTISSLQSEDFAVYYCQQHALWPLTFGGGTKVEIKR
For the molecule B1, the binding result in assay [1] is on record as “binds”.

B2: SRF370-A (antibody, human IgG4 S228P, kappa, V domains shown)
VH: QVQLVQSGAEVKKPGSSVKVSCKASGGTFSTYAIGWVRQAPGQGLEWMGGIIPAFGTANYAQKFQGRVTITADESTSTAYMELSSLRSEDTAVYYCARDPVRRSPFDIWGQGTMVTVSS
VL: EIVLTQSPATLSLSPGERATLSCRASQSVSSYLAWYQQKPGQAPRLLIYDSSNRATGIPARFSGSGSGTDFTLTISSLEPEDFAVYYCQQSFLWPRTFGGGTKVEIKR
As to B2, the binding result in assay [2] is “binds”.
